Assay results published in patent US20250355001A1, “METHOD FOR DETECTING A TAU PROTEIN FRAGMENT IN A SAMPLE” (GTINVENT LIMITED, priority 2022, published 2025).

Experiments:
[1] = tested on: hT40, dGA, dGAE and truncated tau fragments; test: Binding ELISA / epitope mapping of anti-tau scAbs with truncated tau proteins and 13mer peptides; parameters: species or system human; settings: for Tau proteins/fragments with positive scAb reactivity: binding ELISA; for Shortest region bound on hT40: incl. 13mer peptides
Outline: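 Serially double-diluted scAbs were applied to 2% MPBS-blocked wells carrying either 1 μg/ml full-length or truncated tau, or biotinylated 13mer peptides (1 μg/ml) captured on 5 μg/ml streptavidin. Absorbance after HRP anti-human C kappa secondary gave the binding signal.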

[2] = tested on: 13 aa tau peptides of hT40; test: Alanine scanning mutagenesis (ASM) peptide ELISA; assay type: binding, human; settings: alanine substituted peptides; numbering SEQ ID NO: 1
Protocol: Briefly, 5 μg/ml streptavidin (Thermo Fisher) was adsorbed to Nunc 96-well MaxiSorp plates and following incubation at 37° C. for 1 h, the plates were washed as normal and blocked with 2% MPBS. N-terminally biotinylated peptides (Prolmmune Ltd) were added to the plates and incubated for 1 h at 37° C. Subsequently, test scAbs at starting concentrations of 100-500 nM was added and double diluted across the plate for each peptide and incubated for 1 h at 37° C. Rest of the ELISA was conducted as described above and the plates were read at absorbance 450 nm. Immunoreactivity of the scAb of interest was quantified as the % of scAb was bound for each peptide at a chosen concentration (FIG. 15-20).

dGAE aggregates = dGAE aggregates (Homo sapiens, UniProt P10636); test: Epitope occlusion assay: dGAE aggregation with/without LMTM, 423 mAb capture ELISA; assay type: biochemical; settings: total and supernatant samples; 423 mAb capture
Chain of dGAE aggregates (P10636 614-708): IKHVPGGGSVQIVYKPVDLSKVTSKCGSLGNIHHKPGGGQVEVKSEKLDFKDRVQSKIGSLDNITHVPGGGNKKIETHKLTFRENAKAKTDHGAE
Protocol: During dGAE aggregation in vitro, scAb binding regions on dGA/dGAE are ‘hidden’ or ‘occluded’ which leads to a loss of immunoreactivity in aggregation samples. Here we have shown the occlusion of binding regions in aggregated dGAE samples and the recovery of immunoreactivity in the presence of LMTM, a tau-aggregation inhibitor. For preparing the aggregates, 10 μl 10 mM DTT was added to 1000 μl 100 μM dGAE and agitated with/without LMTM (1:5 ratio) at 700 rpm for 24 h at 37° C. Following overnight agitation, one third of each sample was kept aside as ‘total’ and the rest was spun down at 16000×g for 30 min and separated into ‘supernatant’ and ‘pellet’. The pellet was then resuspended in half the original volume for further experiments. […] Doubling dilutions of dGAE aggregate ‘total’, ‘supernatant’ and ‘pellet’ samples at 10 μg/ml starting concentration were added to designated wells in doubling dilutions in 1×PBS. dGAE monomer (non-aggregated) was included as assay control. All double dilutions were done in final volumes of 100 μl. This was left to incubate on lab bench for 1 h followed by the addition of test scAbs at 10 μg/ml. Anti-HuCk HRP labelled secondary antibody was added as described previously and ELISA data generated is represented using the graph below.

[3] = molecular target: T1, hT40 (T441, SEQ ID NO: 1) (Homo sapiens, UniProt P10636); test: Biacore X100 SPR kinetics of scAbs for hT40; assay type: binding; settings: Table 23; scAb captured, T441 (hT40) analyte; 1:1 model
T1 construct: Full length tau (hT40)
T1 sequence (P10636 1-441 isoform P10636-8): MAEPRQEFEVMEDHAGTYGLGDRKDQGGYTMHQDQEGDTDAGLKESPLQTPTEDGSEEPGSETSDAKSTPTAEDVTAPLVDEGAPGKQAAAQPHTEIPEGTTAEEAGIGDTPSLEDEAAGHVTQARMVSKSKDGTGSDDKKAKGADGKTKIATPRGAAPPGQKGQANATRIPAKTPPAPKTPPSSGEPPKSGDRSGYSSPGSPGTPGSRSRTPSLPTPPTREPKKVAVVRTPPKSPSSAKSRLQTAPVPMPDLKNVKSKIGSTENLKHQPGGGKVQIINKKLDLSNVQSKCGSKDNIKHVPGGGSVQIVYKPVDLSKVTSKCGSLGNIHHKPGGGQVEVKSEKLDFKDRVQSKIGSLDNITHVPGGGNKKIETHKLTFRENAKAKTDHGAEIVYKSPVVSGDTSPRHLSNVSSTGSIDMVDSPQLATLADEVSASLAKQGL
Protocol: Surface plasmon resonance (SPR) is widely regarded as the gold standard for real time measurement of protein-protein interactions such as antibody binding. All SPR experiments were carried out using a Biacore X100 machine and HBS EP+ running buffer (GE Healthcare). A ‘capture’ method was followed for affinity measurements, where an anti-human constant kappa chain (HuCk) antibody was conjugated to the surface of a CM5 sensor chip using an amine coupling kit and scAb molecules were immobilised via their HuCk domain. Amine coupling is a very common approach for immobilising the ligand to the chip surface. […] The capture antibody was diluted 1/100 in 10 mM Sodium acetate buffer pH 5.0 and passed over the activated chip surface for a period of at least 420 s. Final ligand immobilisation levels over 12,000 RU were deemed to be satisfactory.
(§1) Following immobilisation, the level of each scAb to be captured was identified using the standard SPR equation with a theoretical RMax of 100 RU. Analyte MW refers to the molecular weight of hT40 or dGA/dGAE molecules, while ligand MW refers to the molecular weight of the scAbs tested. RL is the desired capture level and S refers to the stoichiometric ratio:
The scAb to be tested was added only to flow cell 2 so that flow cell 1 could act as a control to subtract any interaction with the analyte and the chip surface. Both single and multi-cycle runs were utilised using wizards developed in the Biacore X100 control software which are both accepted methods of kinetic analysis (Karlsson, R., et al. Analyzing a kinetic titration series using affinity biosensors (2006) Analytical Biochemistry 349:136-47). The multi-cycle protocol was as follows-Three start-up cycles composed of an initial capture, to the desired level, of the scAb to be tested was performed followed by a 30 s injection of glycine buffer pH 2.0 after each cycle to regenerate the chip surface. […] Following three start-up cycles increasing concentrations (0.15625 nM-100 nM) of the target to be tested were added to the chip surface after the desired scAb capture. The target was added for a 120 s association period and 420 s dissociation period followed by another regeneration, 30 s injection of glycine buffer pH 2.0 in between each cycle.
(§2) The single cycle kinetics protocol was similar and utilised the same level of scAb capture. Three start-up cycles were used followed by 5 increasing concentrations of the analyte (6.25 nM-100 nM) for an association period of 120 s followed by a dissociation period of 420 s for each concentration. In single cycle kinetics the regeneration step was performed only after the final analyte concentration was added. Binding responses were analysed in Biacore X100 evaluation software and data fitted to a 1:1 binding model to obtain kinetic and affinity characterisation.

htau40 = molecular target: T2, htau40 (Homo sapiens, UniProt P10636); test: Biacore X100 SPR kinetics of anti-tau mAbs on immobilised htau40; assay type: binding; settings: Table 27; mAb format, immobilised htau40
T2 construct: Full length tau (hT40)
T2 sequence (P10636 1-441 isoform P10636-8): as above
Protocol: For anti-tau mAb SPR measurements, htau40 was conjugated to the surface of a CM5 sensor chip using amine coupling as explained previously. Briefly, 2 μg/mL htau40 in 10 mM Sodium acetate buffer (pH 4.0) was passed over the activated chip surface (EDC/NHS) in flow cell 2 for a period for 45 s followed by blocking with 1 M ethanolamine-HCl PH 8.5. Flow cell 1 was set up as reference control and blocked simultaneously. Final immobilisation level of htau40 (Rmax) was approximately 250 RU. Following a minimum of three start-up cycles, increasing concentrations (0.78 nM-25 nM) of the mAb in HBS-EP+ buffer was added at a rate of […] to the chip. The mAb was added for a 120 s association period and 600 s dissociation period followed by a regeneration cycle of 30 s injection of glycine buffer pH 1.5 in between each cycle. Binding responses were analysed in Biacore X100 evaluation software and data fitted to a 1:1 binding model to obtain kinetic and affinity characterisation.
For anti-tau mAb SPR measurements (Biacore X100™) and epitope mapping, the same methodologies described above (see Example 16) were followed. Kinetic rates and equilibrium binding constants of additional anti-tau mAbs and the regions recognised on hT40 are given in the Table 25 below

dGA (SEQ ID NO: 5) = dGA (SEQ ID NO: 5) (Homo sapiens, UniProt P10636); test: Biacore X100 SPR kinetics of scAbs for dGA; assay type: binding; settings: Table 24, scAb, dGA analyte
Chain of dGA (SEQ ID NO: 5) (P10636 614-707): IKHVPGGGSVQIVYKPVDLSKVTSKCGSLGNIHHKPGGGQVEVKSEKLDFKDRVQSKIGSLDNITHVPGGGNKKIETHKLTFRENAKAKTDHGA
Protocol: Surface plasmon resonance (SPR) is widely regarded as the gold standard for real time measurement of protein-protein interactions such as antibody binding. All SPR experiments were carried out using a Biacore X100 machine and HBS EP+ running buffer (GE Healthcare). A ‘capture’ method was followed for affinity measurements, where an anti-human constant kappa chain (HuCk) antibody was conjugated to the surface of a CM5 sensor chip using an amine coupling kit and scAb molecules were immobilised via their HuCk domain. Amine coupling is a very common approach for immobilising the ligand to the chip surface. The chip surface has a dextran matrix derivatised with carboxyl groups, which after activation with N-hydroxysuccinimide (NHS) and 1-ethyl-3-(3-dimethylaminopropyl) carbodiimide (EDC), form reactive succinimide esters which allows the covalent capturing of the ligand via any available primary amine groups (e.g. Lysine) on the ligand (in this case anti-HuCk antibody). The capture antibody was diluted 1/100 in 10 mM Sodium acetate buffer pH 5.0 and passed over the activated chip surface for a period of at least 420 s. Final ligand immobilisation levels over 12,000 RU were deemed to be satisfactory.
as §1
The scAb to be tested was added only to flow cell 2 so that flow cell 1 could act as a control to subtract any interaction with the analyte and the chip surface. Both single and multi-cycle runs were utilised using wizards developed in the Biacore X100 control software which are both accepted methods of kinetic analysis (Karlsson, R., et al. Analyzing a kinetic titration series using affinity biosensors (2006) Analytical Biochemistry 349:136-47). The multi-cycle protocol was as follows-Three start-up cycles composed of an initial capture, to the desired level, of the scAb to be tested was performed followed by a 30 s injection of glycine buffer pH 2.0 after each cycle to regenerate the chip surface. The regeneration step removed any captured scAb whilst leaving the capture antibody intact and able to repeat the capture for the next cycle. Following three start-up cycles increasing concentrations (0.15625 nM-100 nM) of the target to be tested were added to the chip surface after the desired scAb capture. The target was added for a 120 s association period and 420 s dissociation period followed by another regeneration, 30 s injection of glycine buffer pH 2.0 in between each cycle.
as §2

[4] = residue numbers of SEQ ID NO: 1 (hT40), CDR Tables 1-11
[5] = Table 26 summary, top scAbs, residues of hT40

Row | Molecule | Tau proteins/fragments with positive scAb reactivity ([1]; Table 17, 'C' group scAbs) | Shortest region bound on hT40 ([1]; Table 17, 'C' group scAbs) | critical binding residues [2] | immunoreactivity to dGAE aggregation samples prepared in the presence of LMTM (dGAE aggregates) | Epitope [1, 4] | Epitope [1, 5] | ka [3] | kd [3] | ka (htau40) | kd (htau40) | Tau proteins/fragments with positive scAb reactivity ([1]; Table 16, NS, S and M clones) | ka (dGA (SEQ ID NO: 5)) | Kd (dGA (SEQ ID NO: 5); dissociation rate)
1 | CA9: anti-tau clone, Tables 2 and 10; SEQ ID NO: 371 (protein, CA9 amino acid sequence) scFv: QVQLQESGPSLVKPSQTLSLTCTVSGFSLTSNSVGWVRQAPGKAPEWVAGIDTDGEEGYNPALNSRLSITRDTSKSQVSLSLSSVTSEDTAVYYCGRSYRSDGLAYGYVQAIDYWGPGLLVTVSSEGKSSGASGESKVDDQAVLTQPASVSGSLGQRVSITCSGSFIGISSVGWFQQLPGSGLRTIIVASDGRPSGVPDRFSMSKSGNTATLTISSLQAEDEADYFCGSSDRTQYTGVFGSGTRLTVLG | hT40, 239-441, 348-441, 297-390 (dGA) | 367-379 | 370 (K), and/or 374 (H) | increase in immunoreactivity | – | – | – | – | – | – | – | – | –
2 | CB3: anti-tau core clone, Table 10; SEQ ID NO: 370 (protein, CB3 amino acid sequence) scFv: QVQLQESGPSLVKPSQTLSLTCTVSGFSLSSVAVNWVRQAPGKVPEWLGGIISNGGTGYNPALKSRLSITRDTSKSQVSLALTHVTTEDTAVYYCGRGVEWEGSMDYLGPGLLVTVSSEGKSSGSGSETKVDDQSVLTQPSSVSGFLGQRVTITCSGSSSNVGAGSYVGWYQQVPGSGLRILIYGATKRASGLPDRFSGSRSGNTATLTISSLQAEDEADYYCVSYQTDFTLVFGSGTRLTVLG | hT40, 297-390 (dGA) | 360-390 | – | increase in immunoreactivity | 360-390 | – | – | – | – | – | – | – | –
3 | CE3: anti-tau core clone, Table 10; SEQ ID NO: 367 (protein, CE3 amino acid sequence) scFv: QVRLQESGPSLVKPSQTLSVTCTVSGFSLISNAVGWVRQAPGKVPESLAGCSSDGKCYYNSALKSRLDITRDTSKNQISLSLSSVTTDDAAVYYCTRGYYPVYGYDYLGTIDYWGPGLLVTVSSEGKSSGASGESKVDDQAVLTQPSSVSGSLGQRVSITCSGSSSNVGRNDVAWFQQLPGSGLRTIIYGTTSRPSGIPDRFSGSKSGVTATLTIDSLQAEDEADYFCASGDSSAINDIFGSGTRLTVLG | hT40, 266-359 (R1-3) | 331-360 | – | increase in immunoreactivity | 331-360 | 331-360 | 174500 M⁻¹ s⁻¹ | 0.000662 s⁻¹ | 103000 M⁻¹ s⁻¹ | 0.001718 s⁻¹ | – | – | –
4 | NS2A1: anti-tau clone, Table 11; SEQ ID NO: 220 (protein, NS2A1 amino acid sequence) scFv: QVQLQESGPSLVKPSQTLSLTCTVSGFSLSTNSVGWVRQAPGKAPEWVAGIDTDGEEGFNPVLKSRLSITRDTSKSQVSLSLSNVTSEDTAVYYCGRSYRTDGLAYGYVQAIDYWGPGLLVTISSEGKSSGASGESKVDDQSVLTQPSSVSGSPGQTVSITCSGSYIGSSGVGWFQQLPGSGLRTIIVASDGRPSGVPDGFSMSKSGNTATLTISSLQAEDEADYFCGSSDRTQYTGLFGSGTRLTVLG | – | – | – | – | 297-390 | 297-390 | 252100 M⁻¹ s⁻¹ | 0.0007393 s⁻¹ | 893700 M⁻¹ s⁻¹ | 0.002621 s⁻¹ | hT40, 297-390 (dGA), 297-391 (dGAE) | 188000 M⁻¹ s⁻¹ | 0.00102 s⁻¹
